The target in the test is rAAV9 vector (AAV9 capsid: full, intermediate and empty capsids) comprising a mini-dystrophin transgene (adeno-associated virus serotype 9 (AAV9)). Nature of the test: affinity chromatography lifecycle study, unbound vg in flow through, resin challenge 7.5x10^13 vg/mL resin.

From patent US20240043869A1 come the findings set out here.

In the case of “POROS CaptureSelect AAV9 affinity resin ligand (VHH)”, the % unbound vg is under 2%.
